The source of these data is publication PMC3176149, “Application of Celluspots peptide arrays for the analysis of the binding specificity of epigenetic reading domains to modified histone tails” (BMC Biochemistry, 2011).

The test deals with FITC-coupled H3K9me3-S10ph peptide (amino acids 1-19) (UniProt P68431). In words: fluorescence polarisation; fluorescence depolarization in solution, purified FITC-coupled H3 1-19 peptides, Varian Carry Eclipse spectrophotometer, as described [40]; fit to a binary binding equilibrium. (Fluorescence polarisation rises when a labelled molecule tumbles more slowly, as on binding a larger partner.)

Turning to “MPP8 Chromo domain (M-phase phosphoprotein 8), GST fusion (from UniProt Q99549 58-112) (domain or fragment)”, the equilibrium dissociation constant (Kd) was greater than 50 µM.

As usually defined, the Kd is the free concentration of one partner at which half of the binding sites on the other are occupied at equilibrium, for simple one-to-one binding.
